Patent publication US20230365641A1 (XILIO DEVELOPMENT, published 2023)

B1: TC3 (Fc fusion)
heavy 1: QVQLVQSGVEVKKPGASVKVSCKASGYTFTNYYMYWVRQAPGQGLEWMGGINPSNGGTNFNEKFKNRVTLTTDSSTTTAYMELKSLQFDDTAVYYCARRDYRFDMGFDYWGQGTTVTVSSASTKGPSVFPLAPSSKSTSGGTAALGCLVKDYFPEPVTVSWNSGALTSGVHTFPAVLQSSGLYSLSSVVTVPSSSLGTQTYICNVNHKPSNTKVDKKVEPKSCDKTHTCPPCPAPELLGGPSVFLFPPKPKDTLMISRTPEVTCVVVDVSHEDPEVKFNWYVDGVEVHNAKTKPREEQYASTYRVVSVLTVLHQDWLNGKEYKCKVSNKALPAPIEKTISKAKGQPREPQVYTLPPCRDELTKNQVSLWCLVKGFYPSDIAVEWESNGQPENNYKTTPPVLDSDGSFFLYSKLTVDKSRWQQGNVFSCSVMHEALHNRFTQKSLSLSPGGGSSPPGGGSSGGGSGPAPTSSSTKKTQLQLEHLLLDLQMILNGINNYKNPKLTAMLTAKFAMPKKATELKHLQCLEEALKPLEEVLNLAQSKNFHLRPRDLISNINVIVLELKGSETTFMCEYADETATIVEFLNRWITFAQSIISTLT
heavy 2: QVQLVQSGVEVKKPGASVKVSCKASGYTFTNYYMYWVRQAPGQGLEWMGGINPSNGGTNFNEKFKNRVTLTTDSSTTTAYMELKSLQFDDTAVYYCARRDYRFDMGFDYWGQGTTVTVSSASTKGPSVFPLAPSSKSTSGGTAALGCLVKDYFPEPVTVSWNSGALTSGVHTFPAVLQSSGLYSLSSVVTVPSSSLGTQTYICNVNHKPSNTKVDKKVEPKSCDKTHTCPPCPAPELLGGPSVFLFPPKPKDTLMISRTPEVTCVVVDVSHEDPEVKFNWYVDGVEVHNAKTKPREEQYASTYRVVSVLTVLHQDWLNGKEYKCKVSNKALPAPIEKTISKAKGQPREPQVCTLPPSRDELTKNQVSLSCAVKGFYPSDIAVEWESNGQPENNYKTTPPVLDSDGSFFLVSKLTVDKSRWQQGNVFSCSVMHEALHNHYTQKSLSLSPGGPPSGSSPMPYDLYHPSGGGAVNGTSQFTCFYNSRANISCVWSQDGALQDTSCQVHAWPDRRRWNQTCELLPVSQASWACNLILGAPDSQKLTTVDIVTLRVLCREGVRWRVMAIQDFKPFENLRLMAPISLQVVHVETHRSNISWEISQASHYFERHLEFEARTLSPGHTWEEAPLLTLKQKQEWISLETLTPDTQYEFQVRVKPLQGEFTTWSPWSQPLAFRTKPAALGKD
light: EIVLTQSPATLSLSPGERATLSCRASKGVSTSGYSYLHWYQQKPGQAPRLLIYLASYLESGVPARFSGSGSGTDFTLTISSLEPEDFAVYYCQHSRDLPLTFGGGTKVEIKRTVAAPSVFIFPPSDEQLKSGTASVVCLLNNFYPREAKVQWKVDNALQSGNSQESVTEQDSKDSTYSLSSTLTLSKADYEKHKVYACEVTHQGLSSPVTKSFNRGEC
notes: Bivalent anti-PD-1 Fab
B2: TC24 (Fc fusion)
heavy 1: QVQLVQSGVEVKKPGASVKVSCKASGYTFTNYYMYWVRQAPGQGLEWMGGINPSNGGTNFNEKFKNRVTLTTDSSTTTAYMELKSLQFDDTAVYYCARRDYRFDMGFDYWGQGTTVTVSSASTKGPSVFPLAPSSKSTSGGTAALGCLVKDYFPEPVTVSWNSGALTSGVHTFPAVLQSSGLYSLSSVVTVPSSSLGTQTYICNVNHKPSNTKVDKKVEPKSCDKTHTCPPCPAPELLGGPSVFLFPPKPKDTLMISRTPEVTCVVVDVSHEDPEVKFNWYVDGVEVHNAKTKPREEQYASTYRVVSVLTVLHQDWLNGKEYKCKVSNKALPAPIEKTISKAKGQPREPQVYTLPPCRDELTKNQVSLWCLVKGFYPSDIAVEWESNGQPENNYKTTPPVLDSDGSFFLYSKLTVDKSRWQQGNVFSCSVMHEALHNRFTQKSLSLSPGGGSSPPGGGSSGGGSGPAPTSSSTKKTQLQLEHLLLDLQMILNGINNYKNPKLTAMLTAKFAMPKKATELKHLQCLEEALKPLEEVLNLAQSKNFHLRPRDLISNINVIVLELKGSETTFMCEYADETATIVEFLNRWITFAQSIISTLT
heavy 2: QVQLVQSGVEVKKPGASVKVSCKASGYTFTNYYMYWVRQAPGQGLEWMGGINPSNGGTNFNEKFKNRVTLTTDSSTTTAYMELKSLQFDDTAVYYCARRDYRFDMGFDYWGQGTTVTVSSASTKGPSVFPLAPSSKSTSGGTAALGCLVKDYFPEPVTVSWNSGALTSGVHTFPAVLQSSGLYSLSSVVTVPSSSLGTQTYICNVNHKPSNTKVDKKVEPKSCDKTHTCPPCPAPELLGGPSVFLFPPKPKDTLMISRTPEVTCVVVDVSHEDPEVKFNWYVDGVEVHNAKTKPREEQYASTYRVVSVLTVLHQDWLNGKEYKCKVSNKALPAPIEKTISKAKGQPREPQVCTLPPSRDELTKNQVSLSCAVKGFYPSDIAVEWESNGQPENNYKTTPPVLDSDGSFFLVSKLTVDKSRWQQGNVFSCSVMHEALHNHYTQKSLSLSPGGGSSGPVPLSLYSGSGGGAVNGTSQFTCFYNSRANISCVWSQDGALQDTSCQVHAWPDRRRWNQTCELLPVSQASWACNLILGAPDSQKLTTVDIVTLRVLCREGVRWRVMAIQDFKPFENLRLMAPISLQVVHVETHRSNISWEISQASHYFERHLEFEARTLSPGHTWEEAPLLTLKQKQEWISLETLTPDTQYEFQVRVKPLQGEFTTWSPWSQPLAFRTKPAALGKD
light: EIVLTQSPATLSLSPGERATLSCRASKGVSTSGYSYLHWYQQKPGQAPRLLIYLASYLESGVPARFSGSGSGTDFTLTISSLEPEDFAVYYCQHSRDLPLTFGGGTKVEIKRTVAAPSVFIFPPSDEQLKSGTASVVCLLNNFYPREAKVQWKVDNALQSGNSQESVTEQDSKDSTYSLSSTLTLSKADYEKHKVYACEVTHQGLSSPVTKSFNRGEC
notes: Mask CD122 (C122S, C168S)
B3: TC47 (Fc fusion)
heavy 1: QVQLVQSGVEVKKPGASVKVSCKASGYTFTNYYMYWVRQAPGQGLEWMGGINPSNGGTNFNEKFKNRVTLTTDSSTTTAYMELKSLQFDDTAVYYCARRDYRFDMGFDYWGQGTTVTVSSASTKGPSVFPLAPSSKSTSGGTAALGCLVKDYFPEPVTVSWNSGALTSGVHTFPAVLQSSGLYSLSSVVTVPSSSLGTQTYICNVNHKPSNTKVDKKVEPKSCDKTHTCPPCPAPELLGGPSVFLFPPKPKDTLMISRTPEVTCVVVDVSHEDPEVKFNWYVDGVEVHNAKTKPREEQYASTYRVVSVLTVLHQDWLNGKEYKCKVSNKALPAPIEKTISKAKGQPREPQVYTLPPCRDELTKNQVSLWCLVKGFYPSDIAVEWESNGQPENNYKTTPPVLDSDGSFFLYSKLTVDKSRWQQGNVFSCSVMHEALHNRFTQKSLSLSPGGGSSPPGGGSSGGGSGPAPTSSSTKKTQLQLEHLLLDLQMILNGINNYKNPKLTAMLTAKFAMPKKATELKHLQCLEEALKPLEEVLNLAQSKNFHLRPRDLISNINVIVLELKGSETTFMCEYADETATIVEFLNRWITFAQSIISTLT
heavy 2: QVQLVQSGVEVKKPGASVKVSCKASGYTFTNYYMYWVRQAPGQGLEWMGGINPSNGGTNFNEKFKNRVTLTTDSSTTTAYMELKSLQFDDTAVYYCARRDYRFDMGFDYWGQGTTVTVSSASTKGPSVFPLAPSSKSTSGGTAALGCLVKDYFPEPVTVSWNSGALTSGVHTFPAVLQSSGLYSLSSVVTVPSSSLGTQTYICNVNHKPSNTKVDKKVEPKSCDKTHTCPPCPAPELLGGPSVFLFPPKPKDTLMISRTPEVTCVVVDVSHEDPEVKFNWYVDGVEVHNAKTKPREEQYASTYRVVSVLTVLHQDWLNGKEYKCKVSNKALPAPIEKTISKAKGQPREPQVCTLPPSRDELTKNQVSLSCAVKGFYPSDIAVEWESNGQPENNYKTTPPVLDSDGSFFLVSKLTVDKSRWQQGNVFSCSVMHEALHNHYTQKSLSLSPGGGSSGPVPLSLYSGSGGGAVNGTSQFTCFYNSRANISCVWSQDGALQDTSCQVHAWPDRRRWNQTCELLPVSQASWACNLILGAPDSQKLTTVDIVTLRVLCREGVRWRVMAIQDFKPFENLRLMAPISLQVVHVETHRACISWEISQASHYFERHLEFEARTLSPGHTWEEAPLLTLKQKQEWICLETLTPDTQYEFQVRVKPLQGEFTTWSPWSQPLAFRTKPAALGKD
light: EIVLTQSPATLSLSPGERATLSCRASKGVSTSGYSYLHWYQQKPGQAPRLLIYLASYLESGVPARFSGSGSGTDFTLTISSLEPEDFAVYYCQHSRDLPLTFGGGTKVEIKRTVAAPSVFIFPPSDEQLKSGTASVVCLLNNFYPREAKVQWKVDNALQSGNSQESVTEQDSKDSTYSLSSTLTLSKADYEKHKVYACEVTHQGLSSPVTKSFNRGEC
notes: Mask CD122 (C122A, N123C)

Legend:
[1] = biological target: T1, PD-1 shown on cells (Raji-PD-1 cells); CD3/CD28 activated human CD8+ T cells; PD-1 effector cells of the … (human, UniProt Q15116 25-288); assay: flow cytometry on CD3+CD8+ T cells within CD3/CD28 activated human PBMCs, 1 h at 4 C, anti-human IgG PE, % anti-hIgG+; table CD8+ T cells under the graph
T1 construct: whole, on cells; Human is stated for the PBMCs; also called hPD-1; PD1 expressing Raji cells
T1 sequence (Q15116 25-288): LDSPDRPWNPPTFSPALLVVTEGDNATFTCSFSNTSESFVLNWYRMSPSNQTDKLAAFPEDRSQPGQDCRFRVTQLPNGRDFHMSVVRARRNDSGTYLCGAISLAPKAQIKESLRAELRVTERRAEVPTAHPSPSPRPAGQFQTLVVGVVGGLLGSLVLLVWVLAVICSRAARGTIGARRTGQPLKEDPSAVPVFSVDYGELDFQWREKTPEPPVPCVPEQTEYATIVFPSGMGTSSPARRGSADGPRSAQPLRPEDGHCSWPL
Protocol: Mixed donor lots of human peripheral blood mononuclear cells (PBMCs) were thawed and seeded in medium (RPMI1640, 10% fetal bovine serum (FBS), 2 mM 1-Glutamine, 50 U/mL penicillin, 50 μg/mL streptomycin, 1 μM each of non-essential amino acids, 10 mM HEPES, 1 mM sodium pyruvate, 55 μM B-mercaptoethanol, 10 μg/mL gentamycin) into tissue culture treated plates that were coated for 1 h at 37° C. with 1 μg/ml anti-CD3. Anti-CD28 was added in solution at a concentration of 5 μg/ml. Two days later the PBMCs were collected and transferred into a 96 well v-bottom plate at 100,000 cells per well in FACS Buffer (2% FBS in phosphate buffered saline (PBS)). Test articles were diluted to twice the indicated concentration in FACS buffer. Test articles were added to cells at a 1:1 ratio to the final concentration indicated in the figure and incubated for 1 h at 4° C. The cells were washed three times with FACS buffer and fixed in 4% PFA. Cells were then washed once in FACS buffer. All cells were stained in 100 μL of indicated molecules in FACS buffer for 1 h at 4° C. The cells were washed three times with FACS buffer and fixed in 4% paraformaldehyde (PFA). All cells were subsequently stained in 100 μL with anti-human IgG PE, anti-CD3 PE/Dazzle 594, anti-CD45 PerCP Cy5.5, anti-CD8 BV510, and anti-CD4 BV421 for 30 minutes. Cells were washed twice to remove unbound antibody and analyzed on the BD Celesta by gating on CD3+CD8+ T cells.

[2] = biological target: PD-1 (antigen of the ELISA and of the in vitro affinity measurement) (UniProt Q15116 25-167, limits assumed); assay: kinetic binding table: TC3 captured as ligand (capture level 78.1 RU), hPD1-his as sample; method not given
PD-1 (antigen of the ELISA and of the in vitro affinity measurement), sequence (Q15116 25-167 limits assumed): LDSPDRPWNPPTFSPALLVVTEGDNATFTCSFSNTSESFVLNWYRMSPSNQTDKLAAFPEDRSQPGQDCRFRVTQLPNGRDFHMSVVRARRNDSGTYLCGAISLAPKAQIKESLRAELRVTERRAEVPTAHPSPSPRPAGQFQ

Row | Binder | EC50 [1] [nM] | Kd [2] [nM] | koff [2] [s⁻¹] | kon [2] [M⁻¹ s⁻¹]
1 | B1 | 0.1 | 7.11 | 0.00328 | 461000
2 | B2 | 0.1 | – | – | –
3 | B3 | 0.1 | – | – | –
